Experimental data: patent US20240301062A1 (BEIGENE SWITZERLAND, published 2024)
Where a chain is given by its changes, count along the chain named. Names and notes keep the numbering of the source. Values joined by “and” are separate entries in the source; they are usually repeats but may differ in a detail not shown here. Identical values can stand only once. Blank lines part the entries; values can stand above or below the binder they belong to.

What was measured:
[1] = biological target: T1, human claudin 6 (CLDN6) (human, UniProt P56747 1-220); assay: FACS, HEK293T/human CLDN6 cells
T1 construct: also called human CLDN6; hCLDN6
T1 sequence: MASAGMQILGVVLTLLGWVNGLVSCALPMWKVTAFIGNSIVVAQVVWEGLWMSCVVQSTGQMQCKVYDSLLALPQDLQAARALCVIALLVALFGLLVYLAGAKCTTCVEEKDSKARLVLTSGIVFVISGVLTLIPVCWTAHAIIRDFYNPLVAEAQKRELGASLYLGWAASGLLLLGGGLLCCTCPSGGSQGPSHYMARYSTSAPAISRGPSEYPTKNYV
Procedure: (§1) For affinity determination, CLDN6 over-expressing HEK293T cells and cancer cell line PA-1 which express high levels of human CLDN6 were used to evaluate the binding activity of BG87P related engineering variants. Live cells were seeded in 96-well plate, and were incubated with a series of dilutions of chBG87P and engineered variants thereof. Goat anti-human IgG was used as second antibody to detect antibody binding to the cell surface. EC50 values for dose-dependent binding to CLDN6 expressing cell lines were determined by fitting the dose-response data to the four-parameter logistic model with GraphPad Prism. Cell binding activity of 1st round of BG87P humanization variants against HEK293T/human CLDN6 were compared to chBG87P and shown in FIG. 1A.
Beginning with the chBG87P antibody and BG87P-Bz0, several additional amino acid changes in the CDR regions of both VH and VL were made to further improve the biophysical properties for therapeutics use in human. The considerations included removing post translational modifications (PTM), improved heat stability (Tm), while maintaining binding activities, the resulted variants are BG87P-m1 (VH SEQ ID NO: 31 and VL SEQ ID NO: 8), BG87P-m2 (VH SEQ ID NO: 32 and VL SEQ ID NO: 8), BG87P-m3 (VH SEQ ID NO: 33 and VL SEQ ID NO: 8), and BG87P-m4 (VH SEQ ID NO: 34 and VL SEQ ID NO: 8) and BG87P-m5 (VH SEQ ID NO: 35 and VL SEQ ID NO: 14), BG87P-m6 (VH SEQ ID NO: 36 and VL SEQ ID NO 14), BG87P-m7 (VH SEQ ID NO: 37 and VL SEQ ID NO: 14), and BG87P-m8 (VH SEQ ID NO: 38 and VL SEQ ID NO: 14). Cell binding activity of chBG87P and BG87P-Bz0 related PTM removal variants against HEK293T/human CLDN6 was compared with chBG87P and BG87-Bz0, respectively ([…]). Cell binding affinity (EC50) and Emax (MFI) was normalized to chBG87P for directly comparison and ranking (Table 7).

[2] = biological target: T1, human claudin 6 (CLDN6); assay: FACS, HEK293-hCLDN6 cells
[3] = biological target: T1, human claudin 6 (CLDN6); assay: FACS, HEK293T-hCLDN6 cells
[4] = biological target: T1, human claudin 6 (CLDN6); assay: FACS, PA-1 cells (endogenous CLDN6)
Procedure: as §1

EC50 [1]: 2.1 nM
Emax ratio to BG87P [1]: 0.56 ratio
Top MFI Mean [1]: 107000 MFI
B1: BG87P-Bz0 (antibody, V domains shown)
VH: QIQLVQSGAEVKKPGASVKVSCKASGYSFTDYHINWVRQAPGQRLEWMGWIYPGSGYTKYNEKFKVRVTLTVDTSASTAYMELSSLRSEDTAVYFCARSGIYHYVSSYYFDHWGKGTTVTVSS
VL: DIQMTQSPSTLSASVGDRVTITCKASQDVGTAVAWYQQKPGKSPKLLIYWASTRHTGVPSRFSGSGSGTEFTLTISSVQPDDFATYFCQQYSSYTFGGGTKVEIK
notes: also called BG87-Bz0

FACS-Ec50 ratio to BG87P [2]: 1.31 ratio
FACS Emax ratio to BG87P [3]: 0.63 ratio
B2: BG87P-32 (antibody, V domains shown)
VH: QVQLQQSGAETKKPGASVKVSCKASGYSFTDYHINWVRQASGQRLEWMGYIYPGSGHTKKNEKFKGRVTITRDTSASTAYMELSSLRSEDTAVYYCARSGIYHYVSSYYFDHWGKGTTVTVSS
VL: B1 VL with V29A, T31S, S43A, V78L, F87Y
notes: Solubility engineering variant of BG87P-21

EC50 [1]: 2.19 nM
Emax ratio to BG87P [1]: 0.52 ratio
Top MFI Mean [1]: 99700 MFI
B3: BG87P-Bz1 (antibody, V domains shown)
VH: B1 VH with I2V
VL: B1 VL

EC50 [1]: 1.71 nM
Emax ratio to BG87P [1]: 0.68 ratio
Top MFI Mean [1]: 131000 MFI
B4: BG87P-Bz8 (antibody, V domains shown)
VH: B1 VH
VL: B1 VL with F87Y

EC50 [1]: 2.16 nM
Emax ratio to BG87P [1]: 0.73 ratio
Top MFI Mean [1]: 141000 MFI
EC50 [4]: 2.27 nM
Emax ratio to BG87P [4]: 0.5 ratio
Top MFI Mean [4]: 62400 MFI
B5: BG87P-24 (antibody, V domains shown)
VH: B1 VH with I2V, V66G, V72R, F95Y
VL: B1 VL with S43A, V78L, F87Y

EC50 [1]: 2.54 nM
Emax ratio to BG87P [1]: 0.81 ratio
Top MFI Mean [1]: 155000 MFI
B6: BG87P-Bz7 (antibody, V domains shown)
VH: B1 VH
VL: B1 VL with V78L

EC50 [1]: 2.79 nM
Emax ratio to BG87P [1]: 0.75 ratio
Top MFI Mean [1]: 144000 MFI
B7: BG87P-Bz6 (antibody, V domains shown)
VH: B1 VH
VL: B1 VL with S43A

EC50 [1]: 2.33 nM
Emax ratio to BG87P [1]: 0.74 ratio
Top MFI Mean [1]: 143000 MFI
EC50 [4]: 2.34 nM
Emax ratio to BG87P [4]: 0.59 ratio
Top MFI Mean [4]: 73700 MFI
B8: BG87P-25 (antibody, V domains shown)
VH: B1 VH with V66G, V72R, F95Y
VL: B1 VL with S43A, V78L, F87Y

EC50 [1]: 2.12 nM
Emax ratio to BG87P [1]: 0.71 ratio
Top MFI Mean [1]: 137000 MFI
EC50 [4]: 3.01 nM and 3 nM
Emax ratio to BG87P [4]: 0.54 ratio
B9: BG87P-22 (antibody, V domains shown)
VH: B1 VH with I2V, V66G, L70I, V72R
VL: B1 VL with S43A, V78L, F87Y

EC50 [1]: 4.19 nM
Emax ratio to BG87P [1]: 0.66 ratio
Top MFI Mean [1]: 126000 MFI
B10: BG87P-m5 (antibody, V domains shown)
VH: B1 VH with D111E
VL: B1 VL
notes: PTM removal variant of BG87P-Bz0; constant regions not restated (parent: human IgG1/kappa)

EC50 [1]: 2.45 nM
Emax ratio to BG87P [1]: 0.5 ratio
Top MFI Mean [1]: 95600 MFI
EC50 [4]: 3.25 nM
Emax ratio to BG87P [4]: 0.43 ratio
Top MFI Mean [4]: 53200 MFI
B11: BG87P-z0 (antibody, V domains shown)
VH: B1 VH with I2V, S28T, L70I, V72R, F95Y
VL: B1 VL with S43A, V78L, F87Y

EC50 [1]: 48.7 nM
Emax ratio to BG87P [1]: 0.28 ratio
Top MFI Mean [1]: 54000 MFI
B12: BG87P-m8 (antibody, V domains shown)
VH: B1 VH with H33A
VL: B1 VL
notes: Variant of BG87P-Bz0 with H33A; constant regions not restated (parent: human IgG1/kappa)
